Consider two molecules from US20060240417A1, “Agent controlling the apoptosis induction by p73” (Hisamitsu Pharmaceutical Co., Inc., priority 2002, published 2006).

Series [1] has as its system p73α and ΔNp73α in SH-SY5Y cells. Briefly: Immunoblot (Western blotting) of cisplatin-treated tumor cells. Type of series: cell-based, human. The following applies: tumor cells treated with cisplatin, RT-PCR. As to the method:
The present inventors ascertained that treating tumor cells with the DNA inhibiting agent cisplatin causes apoptosis of the tumor cells in a dose-dependent manner. Production of proteins p53 and p73α was confirmed by Western blotting. The tumor cells in this case are preferably neuroblastoma cells, but may also be other central or peripheral nervous system tumor cells.
The cells were lysed in EBC buffer (50 mM Tris-HCl, pH 8.0/120 mM NaCl/0.5% Nonidet P-40) containing 1 mM phenylmethylsulfonyl fluoride. The lysate was clarified by centrifugation at 14,000 rpm at 4° C. for 15 minutes. The protein concentration was determined by the Bradford procedure. For immunoblot analysis, the proteins were resolved by SDS […] gel electrophoresis and transferred to a nitrocellulose membrane. The membrane filter was blocked with 5% powdered milk in TBST (10 mM Tris-HCl, pH 8.0/150 mM NaCl/0.1% Tween 20) for 1 hour at room temperature. […] The bound secondary antibody was detected by enhanced chemiluminescence (ECL, Amersham Pharmacia Biotech) according to the manufacturer's protocol.
The whole cell protein (40 μg) was extracted from each culture. The expression levels of p73α and p53 were each determined by immunoblot analysis (described above) using p73α-specific antibody (Ab-1) or p53-specific antibody (DO-1). […]
(In general: Immunoblotting shows a protein as a band on a membrane.)

In series [2] the target is T1, p73beta (UniProt O15350-2 O15350-2:1-499).
T1 sequence: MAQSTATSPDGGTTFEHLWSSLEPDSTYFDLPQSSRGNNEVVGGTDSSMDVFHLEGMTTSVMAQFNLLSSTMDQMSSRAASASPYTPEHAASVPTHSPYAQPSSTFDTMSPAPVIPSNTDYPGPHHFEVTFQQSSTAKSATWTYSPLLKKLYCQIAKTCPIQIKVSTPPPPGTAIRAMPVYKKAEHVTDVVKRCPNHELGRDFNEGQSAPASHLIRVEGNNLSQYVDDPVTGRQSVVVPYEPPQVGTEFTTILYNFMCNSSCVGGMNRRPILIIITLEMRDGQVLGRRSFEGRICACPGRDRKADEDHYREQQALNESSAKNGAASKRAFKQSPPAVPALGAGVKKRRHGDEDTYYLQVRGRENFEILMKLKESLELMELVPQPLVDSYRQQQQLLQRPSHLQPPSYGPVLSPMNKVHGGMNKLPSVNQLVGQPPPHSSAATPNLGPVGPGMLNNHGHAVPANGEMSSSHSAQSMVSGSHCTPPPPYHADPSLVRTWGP
Description: EMSA; supershifted by anti-HA; poly(dI-dC), 3.125 mM MgCl2, room temperature. The following applies: tags: HA tag; TNT reticulocyte lysate; label: 32P. On the technique in general: Mobility shift assays separate free from complexed probe on a gel.

Series [3] addresses T2, p73alpha (UniProt O15350 O15350:1-636).
T2 sequence: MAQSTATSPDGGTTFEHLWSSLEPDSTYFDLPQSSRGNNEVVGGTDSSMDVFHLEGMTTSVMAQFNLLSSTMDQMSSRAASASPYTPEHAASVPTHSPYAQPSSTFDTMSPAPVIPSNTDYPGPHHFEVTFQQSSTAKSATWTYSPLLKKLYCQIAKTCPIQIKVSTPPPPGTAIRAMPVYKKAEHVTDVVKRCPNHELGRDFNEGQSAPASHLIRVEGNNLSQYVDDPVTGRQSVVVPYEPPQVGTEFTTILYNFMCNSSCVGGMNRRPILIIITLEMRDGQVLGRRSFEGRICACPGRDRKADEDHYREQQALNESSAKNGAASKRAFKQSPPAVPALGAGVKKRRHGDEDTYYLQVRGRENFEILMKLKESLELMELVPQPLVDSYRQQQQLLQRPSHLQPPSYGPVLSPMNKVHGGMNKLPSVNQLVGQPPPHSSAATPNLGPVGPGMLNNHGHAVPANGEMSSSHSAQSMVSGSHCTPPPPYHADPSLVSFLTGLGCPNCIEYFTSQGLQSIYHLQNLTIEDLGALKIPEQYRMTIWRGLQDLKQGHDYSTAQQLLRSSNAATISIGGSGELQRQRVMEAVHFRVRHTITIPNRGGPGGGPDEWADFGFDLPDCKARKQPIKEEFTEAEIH
The series is described as above. The following applies: tags: HA tag; TNT reticulocyte lysate; label: 32P.

Take `N.N.[Cl][Pt][Cl]` [cisplatin]: the “production of p73α and ΔNp73α at mRNA and protein level” value in series [1] was “induces production of p73α and ΔNp73α”.

B1: deltaNp73 promoter 61-bp probe (dsDNA)
DNA 1: GTGCGGTCCAACACATCACCGGGCAAGCTGAGGCCTGCCCCGGACTTGGATGAATACTCAT
DNA 2: ATGAGTATTCATCCAAGTCCGGGGCAGGCCTCAGCTTGCCCGGTGATGTGTTGGACCGCAC
As to B1, the binding result in series [2] and in series [3] was “binds” throughout.
